From patent US20150098945A1 (Daiichi Sankyo, published 2015) come the findings set out here.

This experiment has as its target T1, N-terminal FLAG-tagged full-length human ROBO4 (pCI-FLAG-hROBO4-28) (human, UniProt Q8WZ75 28-1007).
T1 construct: On transfected HEK293 cells
T1 sequence: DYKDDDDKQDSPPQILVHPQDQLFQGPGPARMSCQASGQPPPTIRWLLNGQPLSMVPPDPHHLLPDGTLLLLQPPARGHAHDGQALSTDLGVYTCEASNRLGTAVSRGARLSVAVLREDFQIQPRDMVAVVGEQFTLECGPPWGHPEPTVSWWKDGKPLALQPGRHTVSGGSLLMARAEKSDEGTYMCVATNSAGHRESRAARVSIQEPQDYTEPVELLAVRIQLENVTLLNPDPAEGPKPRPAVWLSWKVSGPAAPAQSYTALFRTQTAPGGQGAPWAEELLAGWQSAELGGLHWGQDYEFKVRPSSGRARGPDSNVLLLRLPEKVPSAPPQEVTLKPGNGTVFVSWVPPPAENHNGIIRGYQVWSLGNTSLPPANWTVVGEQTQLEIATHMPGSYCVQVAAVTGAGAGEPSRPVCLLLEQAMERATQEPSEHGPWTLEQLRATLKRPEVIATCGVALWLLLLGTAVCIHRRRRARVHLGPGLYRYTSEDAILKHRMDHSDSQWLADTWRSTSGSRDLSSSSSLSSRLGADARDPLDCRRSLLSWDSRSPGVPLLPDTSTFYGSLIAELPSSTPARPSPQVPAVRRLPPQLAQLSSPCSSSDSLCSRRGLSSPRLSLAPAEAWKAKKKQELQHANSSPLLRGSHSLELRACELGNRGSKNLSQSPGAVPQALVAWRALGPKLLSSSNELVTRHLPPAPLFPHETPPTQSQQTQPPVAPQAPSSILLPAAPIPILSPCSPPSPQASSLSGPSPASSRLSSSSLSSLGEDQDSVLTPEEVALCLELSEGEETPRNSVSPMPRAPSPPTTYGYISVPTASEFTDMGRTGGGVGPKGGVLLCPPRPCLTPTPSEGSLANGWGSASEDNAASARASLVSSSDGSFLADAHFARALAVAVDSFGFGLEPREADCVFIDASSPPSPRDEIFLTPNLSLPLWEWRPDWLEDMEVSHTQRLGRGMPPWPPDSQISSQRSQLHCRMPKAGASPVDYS
The experiment is described as follows: flow cytometry, HEK293 cells transfected with pCI-FLAG-hROBO4-28, antibody at 10 µg/mL, anti-mouse IgG FITC; control histogram IgG (Mouse IgG2a). Here is the method:
HEK293 cells were inoculated at a concentration of 1.5×10⁶ cells/dish to a 60-mm dish (manufactured by Corning Inc.) and cultured overnight in a DMEM medium containing 10% FBS at 37° C. under 5% CO₂ conditions. […] On the next day, the expression vector-transfected cells were treated with TrypLE Express (manufactured by Life Technologies Corp.), washed with PBS containing 5% FBS, and then suspended in PBS containing 5% FBS. The obtained cell suspension was used in flow cytometry analysis.
Each cell suspension prepared in 4)-5-1 was centrifuged, and the supernatant was removed. Then, MAb1, a positive control Monoclonal ANTI-FLAG M2 antibody produced in mouse, or a negative control Mouse IgG2a was added at a concentration of 10 μg/mL to 2×10⁵ expression vector-transfected cells, and the resulting suspension was left standing at 4° C. for 1 hour. The cells were washed once with PBS containing 5% FBS. Then, Anti-Mouse IgG FITC conjugate diluted 1000-fold with PBS containing 5% FBS was added thereto, and the resulting suspension was left standing at 4° C. for 1 hour. […] Data was analyzed using Flowjo. The histogram of FITC fluorescence intensity was prepared. The antibody was determined to bind to a cell when the histogram of MAb1 was shifted to a stronger fluorescence intensity region compared with the histogram of the negative control Mouse IgG2a. […]
(In general: In flow cytometry, cells or beads pass a laser one at a time.)

B1: anti-ROBO4 mouse monoclonal antibody MAb1 (antibody, mouse IgG1, V domains shown)
VH: EVQLVESGGGLVKPGGSLKLSCAASGFTFSTYAMSWVRQTPEKRLEWVATISNGGTYTYYPDSVKGRFTISRDNAENTLYLQMSSLRSEDTAMYFCARLIYYDYLDYWGHGTTLTVSS
VL: DAVMTQTPLSLPVSLGDQASISCRSSQSLENSNGNTYLNWYFQKPGQSPQLLIYRVSNRFSGVLDRFSGSGSGTDFTLKISRVEAEDFGVYFCLQVTHVPWTFGGGTKLEIKR
notes: Mouse IgG1 (gamma1), kappa light chain, purified from hybridoma supernatant; also called parent antibody MAb1
With B1, the binding result is reported as “binds”.
